From publication PMC11403621, “Selective Aurora A-TPX2 Interaction Inhibitors Have In Vivo Efficacy as Targeted Antimitotic Agents” (Journal of Medicinal Chemistry, 2024)
No end group written: not given here.

T1: Aurora A kinase domain (residues 126–390) of human Aurora A with hexa-His tag (human, UniProt O14965 126-390)
T1 construct: Construct for biophysical assays; Co-expressed with λ phosphatase, so probably not phosphorylated (surmise); The crystallography constructs differ (Thr287Ala or Cys290Ala); also called Aurora A protein; pBAT4-AurAS.003; source: E. coli BL21(DE3) with pUBS520, double cistronic construct with λ phosphatase, purified (HisTrap, Superdex 75)
T1 sequence (looked up): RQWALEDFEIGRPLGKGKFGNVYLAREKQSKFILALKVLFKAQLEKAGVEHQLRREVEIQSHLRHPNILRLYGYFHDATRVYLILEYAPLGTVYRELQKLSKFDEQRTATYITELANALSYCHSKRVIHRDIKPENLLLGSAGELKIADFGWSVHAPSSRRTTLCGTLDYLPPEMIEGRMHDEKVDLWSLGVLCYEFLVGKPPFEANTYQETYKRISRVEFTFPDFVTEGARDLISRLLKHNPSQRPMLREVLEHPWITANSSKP


Legend:
[1] = target: T1, Aurora A kinase domain (residues …); test: ligand-observed NMR (CPMG) competition; small-molecule fragments bound to Aurora A, displaced by added TPX2 peptide 7-22 but not by a tight-binding ATP-site ligand; conditions: both partners purified
[2] = target: T1, Aurora A kinase domain (residues …); test: fluorescence polarisation; direct titration of up to 200 nM Aurora A to 11 nM labeled TPX2 peptide; 100 mM HEPES pH 7.4, 100 mM magnesium acetate, 50 mM NaCl, 0.02% P20, 1 mM DTT, 1 mM ATP, 10% (v/v) DMSO; conditions: both partners purified

Binder	binding result [1]	Kd [2]
SYSYDAPSDFINFSSL (peptide, UniProt Q9ULW0 7-22, looked up, TPX2, UniProt Q9ULW0 (printed for the longer peptide), amino acids 7-22; detailed methods are in the Supporting Information PDF) [TPX2 peptide fragment (amino acids 7–22)]	binds	–
GPGSYSYDAPSDFINFSSLDDEGDTQNIDSWFEEKANLENLKGGGC(Alexa Fluor 488 C5 maleimide)SS (residues left at the N-terminus before the TPX2 part in the printed peptide (after HRV 3C cleavage); TPX2, UniProt Q9ULW0, residues 7-43; C-terminal tail as printed: LK followed by the stated GGGCSS tail; the cysteine carries the dye; Whole printed peptide: [residues removed]; also called labeled TPX2 peptide; not shown: His-tag, N-terminal, cleaved; GB1, N-terminal, cleaved) [TPX2 peptide (residues 7–43) with a C-terminal GGGCSS tail, labeled with Alexa Fluor 488]	–	1.2 nM
